For assay [1], the target named is T1, human IL12Rβ2, cell-expressed (human, UniProt Q99665 24-862).
T1 sequence (looked up): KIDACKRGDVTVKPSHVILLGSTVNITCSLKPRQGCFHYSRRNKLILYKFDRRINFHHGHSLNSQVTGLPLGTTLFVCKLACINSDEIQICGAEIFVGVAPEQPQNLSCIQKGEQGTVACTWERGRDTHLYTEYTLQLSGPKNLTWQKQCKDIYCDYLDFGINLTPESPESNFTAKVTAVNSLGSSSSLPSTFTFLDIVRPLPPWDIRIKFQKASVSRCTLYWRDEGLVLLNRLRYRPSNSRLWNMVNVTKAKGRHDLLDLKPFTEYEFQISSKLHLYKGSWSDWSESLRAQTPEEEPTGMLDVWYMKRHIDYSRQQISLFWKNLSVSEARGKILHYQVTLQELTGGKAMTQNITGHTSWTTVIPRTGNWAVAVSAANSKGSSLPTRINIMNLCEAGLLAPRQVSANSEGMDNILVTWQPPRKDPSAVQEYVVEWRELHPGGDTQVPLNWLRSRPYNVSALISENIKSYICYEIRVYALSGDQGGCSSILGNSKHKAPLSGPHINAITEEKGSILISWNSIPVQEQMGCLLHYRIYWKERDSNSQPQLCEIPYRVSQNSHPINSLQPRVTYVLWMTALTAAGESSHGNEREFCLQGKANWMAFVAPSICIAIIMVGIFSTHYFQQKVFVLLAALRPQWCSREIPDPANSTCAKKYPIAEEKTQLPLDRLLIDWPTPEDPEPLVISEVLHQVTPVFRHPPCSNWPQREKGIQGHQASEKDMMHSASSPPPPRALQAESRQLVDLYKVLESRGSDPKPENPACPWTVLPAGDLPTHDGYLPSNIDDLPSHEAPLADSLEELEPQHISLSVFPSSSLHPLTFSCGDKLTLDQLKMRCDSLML
The assay can be described thus: cell-based or functional assay.

Assay [2] deals with T1, human IL12Rβ2, cell-expressed. The assay can be described thus: FACS, activated human T cells. (In flow cytometry, cells or beads pass a laser one at a time.)
Assay [3] has as its target T2, human IL12Rβ2 extracellular domain Fc-fusion (human, UniProt Q99665 24-622).
T2 construct: extracellular domain; bought; also called IL12Rβ2-Fc; hIL-12Rβ2-Fc
T2 sequence (looked up): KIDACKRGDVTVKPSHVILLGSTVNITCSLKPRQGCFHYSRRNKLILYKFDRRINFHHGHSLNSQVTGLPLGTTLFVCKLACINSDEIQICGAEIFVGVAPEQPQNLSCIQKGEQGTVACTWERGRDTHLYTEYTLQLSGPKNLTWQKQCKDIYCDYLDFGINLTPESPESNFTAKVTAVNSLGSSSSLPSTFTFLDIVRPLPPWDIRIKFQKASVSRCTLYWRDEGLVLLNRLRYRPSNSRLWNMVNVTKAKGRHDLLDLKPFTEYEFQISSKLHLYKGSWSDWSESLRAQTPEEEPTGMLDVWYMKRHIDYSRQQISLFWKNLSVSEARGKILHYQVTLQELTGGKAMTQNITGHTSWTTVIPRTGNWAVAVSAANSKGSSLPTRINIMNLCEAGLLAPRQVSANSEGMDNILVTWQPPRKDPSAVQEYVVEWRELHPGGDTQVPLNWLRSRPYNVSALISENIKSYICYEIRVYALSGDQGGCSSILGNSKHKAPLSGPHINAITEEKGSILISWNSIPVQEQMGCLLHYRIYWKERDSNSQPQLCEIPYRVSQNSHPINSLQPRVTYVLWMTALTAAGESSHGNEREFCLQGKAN
Put plainly: SPR Biacore T100, captured IL12Rβ2-Fc. In general terms: SPR reads the build-up and loss of mass on a sensor chip optically.

Assay [4] concerns the target T2, human IL12Rβ2 extracellular domain …. Put plainly: competition ELISA, coated IL-12 + IL12Rβ2-Fc. In general terms: An ELISA detects its analyte on a solid surface through an enzyme-linked reagent.
For assay [5] the target is unchanged. Put plainly: competition ELISA, coated IL-12 + 3 nM IL12Rβ2-Fc.
The target in assay [6] is T3, human CD4, cell-expressed (human, UniProt P01730 26-458).
T3 construct: whole, on cells
Put plainly: flow cytometry on MOLM-13 cells (CD4, no IL12R or IL23R), upper left panel.

The target in assay [7] is T4, human IL12Rβ1, cell-expressed (human, UniProt P42701 24-662).
T4 construct: whole, on cells; in the context of the heterodimeric receptor; also called IL12Rb1
Put plainly: flow cytometry on isolated CD8+ T cells of donor D863, anti-Flag detection.

The target in assay [8] is T5, human CXCR4 (on cells, viral lipoparticles or membrane extracts) (human, UniProt P61073 1-352).
T5 construct: whole, on cells; also called hCXCR4 VLPs; CXCR4-lip
T5 sequence (P61073 whole entry): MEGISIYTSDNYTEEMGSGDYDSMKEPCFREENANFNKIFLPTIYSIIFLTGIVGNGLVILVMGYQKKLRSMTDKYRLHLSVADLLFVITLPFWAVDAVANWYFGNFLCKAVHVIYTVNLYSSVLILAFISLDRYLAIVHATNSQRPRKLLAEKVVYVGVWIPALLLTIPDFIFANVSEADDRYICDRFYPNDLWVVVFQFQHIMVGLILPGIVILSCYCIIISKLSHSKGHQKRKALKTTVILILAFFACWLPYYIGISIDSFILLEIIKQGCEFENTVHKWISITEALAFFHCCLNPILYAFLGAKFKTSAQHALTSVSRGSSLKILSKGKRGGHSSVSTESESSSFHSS
Put plainly: FACS, Jurkat cells.

For assay [9], the target named is T5, human CXCR4 (on cells, viral …). Put plainly: FACS, Caki-CXCR4 cells.
The target is the same in assay [10]. Put plainly: cell-based or functional assay.
For assay [11] the target is unchanged. Put plainly: cell-based or functional assay. This is another data set of the same source.
Assay [12] has the same target. Put plainly: ELISA, CXCR4 viral lipoparticles.
Assay [13] shares this target. Put plainly: FACS displacement of 30 nM biotin-SDF-1, Caki-CXCR4 cells.
The target of assay [14] is T6, recombinant IL-3Rα ectodomain (human, UniProt P26951 19-305).
T6 construct: extracellular domain; also called recombinant IL-3Ra; biotinylated-IL-3Rα ectodomain
T6 sequence (looked up): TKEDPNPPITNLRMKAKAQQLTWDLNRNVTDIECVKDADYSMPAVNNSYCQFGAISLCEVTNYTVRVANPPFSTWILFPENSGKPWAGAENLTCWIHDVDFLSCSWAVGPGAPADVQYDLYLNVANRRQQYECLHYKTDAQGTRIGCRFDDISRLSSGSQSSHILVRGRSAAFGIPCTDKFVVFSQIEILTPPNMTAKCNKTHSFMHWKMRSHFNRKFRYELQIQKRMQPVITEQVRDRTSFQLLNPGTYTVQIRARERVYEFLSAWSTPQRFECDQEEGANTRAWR
Put plainly: ELISA on recombinant IL-3Ra ectodomain (both lower panels).

In assay [15] the target is T7, CXCR4 and IL-3Rα (CD123) co-expressed on MOLM-13 / THP-1 cells (human, UniProt P61073 1-352; P26951 19-378).
T7 construct: whole, on cells; two separate membrane proteins on one cell, not a complex; target of bispecifics on double-positive cells; also called CXCR4+/CD123+ cells
T7 sequence (P61073 whole entry, one chain of several): as the sequence (P61073 whole entry) above
Put plainly: flow cytometry on MOLM-13 cells (IL-3Ra higher than CXCR4).

Assay [16] deals with T6, recombinant IL-3Rα ectodomain. Put plainly: ELISA on recombinant IL-3Ra ectodomain (panel 'IL-3Ra ELISA', lower left).

Residue numbers refer to the chain shown, from its start.

B1: IL12Rb2#1: 135B08 (VHH)
VHH: EVQLVESGGRLVQAGDSLRLSCAASGRTFISYRMGWFRQAPGKEREFVAALRWSSSNIDYTYYADSVKGRFSISGDYAKNTVYLQMNSLKAEDTAVYYCAASTRWGVMESDTEYTSWGQGTLVTVSS
notes: also called IL12Rβ2#1; LG135B08
Take B1: in [1], the “IC50, IFNγ release, PBMC D840” value was 13.5 nM and the “IC50, IFNγ release, T cells D839” value was 51 nM. In addition, the EC50 (in general, the concentration needed to bring the measured effect to its halfway point) in assay [2] is 1.5 nM. Also, in assay [3], the Kd – broadly, the free concentration of one partner at which half of the binding sites on the other are occupied at equilibrium, for simple one-to-one binding – turned out to be 2.7 nM; the off-rate constant (koff) – broadly, the rate constant with which the complex falls apart – amounted to 0.00057 s⁻¹; the kon (in general, the second-order rate constant of association) was 210000 M⁻¹ s⁻¹. Moreover, in assay [4], the IC50 (as a rule, the concentration needed to halve the response being measured) is 4.2 nM. In addition, the concentration for half-maximal inhibition (IC50) in assay [5] is 4.2 nM. For the same molecule, the binding result in assay [6] is reported as “no binding (tested: 1E-6 M)”. Also, in [7], the binding result is listed as “no binding (tested: 250 nM)”.

B2: IL12Rb2#2: 135A07 (VHH)
VHH: B1 VHH with I30T, A49S, S56G
notes: also called IL12Rβ2#2; LG135A07
In the case of B2, in assay [1], the “IC50, IFNγ release, PBMC D840” value was determined as 40 nM and the “IC50, IFNγ release, T cells D839” value is 67 nM. Also, in assay [2], the EC50 stood at 1.8 nM. Moreover, in [3], the Kd was determined as 6.9 nM, the koff is 0.0018 s⁻¹ and the on-rate (kon) was determined as 270000 M⁻¹ s⁻¹. The half-inhibitory concentration (IC50) in assay [4] amounted to 15 nM. The IC50 in assay [5] is 15 nM. The binding result in [6] is recorded as “no binding (tested: 1E-6 M)”.

B3: 14D09 (VHH)
VHH: EVQLVESGGGLVQAGGSLRLSCVASGISSSKRNMGWYRQAPGKQRESVATISSGGNKDYTDAVKDRFTISRDTTKNTVYLQMNSLKPEDTAVYYCKIEAGTGWATRRGYTYWGQGTLVTVSS
notes: also called CXCR4#1; 14D9
For B3, the EC50 in assay [8] stood at 11 nM; in assay [9] it was 9.9 nM; in assay [12] it was 7.28 nM. Besides, the “IC50, SDF-1 chemotaxis, Jurkat” value in assay [10] is 11 nM. Further, the “IC50, CXCL-12 chemotaxis, Jurkat E6-1” value in [11] was 10.4 nM. In addition, the “IC50, CXCL-12 chemotaxis, MOLM-13” value in assay [11] was 8.62 nM. The molecule further registered a half-inhibitory concentration (IC50) in [13] of 18.4 nM. Moreover, in assay [14], the binding result is “no binding (tested: 1E-6 M)”.

B4: 14A02 (VHH)
VHH: B3 VHH with K31I, N83S, L117Q
For B4, the EC50 in assay [8] turned out to be 1.15 nM; in assay [9], 4 nM; in [12], 0.73 nM. For the same molecule, in assay [10], the “IC50, SDF-1 chemotaxis, Jurkat” value was 0.95 nM. In assay [13], this molecule displayed an IC50 of 4.1 nM.

B5: 14E02 (VHH)
VHH: B3 VHH with K31I, L117Q
notes: also called 14E2
On to B5, for which the figures for the EC50 in [9] and in assay [12] were 2.6 nM and 0.78 nM, respectively. Besides, the IC50 in assay [13] was 13.5 nM.

B6: 55A01-35GS-281F12 (bispecific antibody)
chain: EVQLVESGGGSVQAGGSLRLSCTTSGRALNMYVMGWFRQAPGNEREFVAATSSSGGSTSYPDSVKGRFTISRDNAKNTVYLQMNSLKPEDTAAYRCAASPYVSTPTMNILEEYRYWGQGTLVTVSSGGGGSGGGGSGGGGSGGGGSGGGGSGGGGSGGGGSEVQLVESGGGLVQAGDSLRLSCAASGRAFSRYAMGWFRQAPGKEREFVAAIGWGPSKTNYADSVKGRFTISRDNAKNTVYLQMNTLKPEDTAVYSCAAKFVNTDSTWSRSEMYTYWGQGTLVTVSS
notes: also called CD123#2-CXCR4#2; 55A01-281F12
As for B6, the concentration giving a half-maximal response (EC50 (read off the curve)) – broadly, the concentration needed to bring the measured effect to its halfway point – in [15] was roughly 10 nM; in [16], roughly 1 nM.

B7: 55A01-35GS-14D09 (bispecific antibody)
chain: EVQLVESGGGSVQAGGSLRLSCTTSGRALNMYVMGWFRQAPGNEREFVAATSSSGGSTSYPDSVKGRFTISRDNAKNTVYLQMNSLKPEDTAAYRCAASPYVSTPTMNILEEYRYWGQGTLVTVSSGGGGSGGGGSGGGGSGGGGSGGGGSGGGGSGGGGSEVQLVESGGGLVQAGGSLRLSCVASGISSSKRNMGWYRQAPGKQRESVATISSGGNKDYTDAVKDRFTISRDTTKNTVYLQMNSLKPEDTAVYYCKIEAGTGWATRRGYTYWGQGTLVTVSS
notes: FLAG3-His6 also made; also called CD123#2-CXCR4#1; 55A01-14D09
Consider B7, for which, in assay [11], the “Fold inc. vs CXCR4#1, Jurkat E6-1” value came to 0.12 fold; the “Fold inc. vs CXCR4#1, MOLM-13” value worked out at 0.03 fold; the “IC50, CXCL-12 chemotaxis, Jurkat E6-1” value was 85 nM; the “IC50, CXCL-12 chemotaxis, MOLM-13” value is 290 nM. Besides, in [16], the “EC50 (read off the curve)” value was roughly 1 nM.

The record behind these values is patent US20160251440A1 (Ablynx, published 2016).
